Legend:
[1] = molecular target: T1, extracellular domain of human ROR2 (human, UniProt Q01974 34-403); experiment: BLI, IgG1 on biosensor, soluble ROR ectodomain
T1 construct: bought protein; biotinylated in the bivalent assay format; also called Acro Cat. No. RO2-H52E5
From the text: (§1) To measure binding affinity in ROR binder discovery campaigns, the VL and VH domains identified in the phage screen described above were formatted into a bivalent monospecific native human full-length IgG1 architecture and immobilized to a biosensor on an Octet (Pall ForteBio) biolayer interferometer. Soluble ROR antigens, including the extracellular domains of ROR1 (Acro Cat. No. RO1-H522γ) and ROR2 (Acro Cat. No. R02-H52E5), as well as the individual ROR1 Frizzled (Acro Cat. No. RO1-H5222), Ig-like (Acro Cat. No. RO1-H5221), and Kringle (Acro Cat. No. RO1-H5223) domains, were then added to the system and binding measured.
(§2) ROR binding candidates, formatted in the bivalent monospecific native human full-length IgG1 architecture, were further characterized for binding to ROR1 and/or ROR2. […] ROR binding candidates were also characterized for their binding to specific ROR1 domains.

[2] = molecular target: T2, extracellular domain of human ROR1 (human, UniProt Q01973 30-406); experiment: BLI (Octet), IgG1, two-fold serial dilution 200-12.5 nM
T2 construct: bought protein; biotinylated in the bivalent assay format; also called Acro Cat. No. RO1-H522y
T2 sequence (Q01973 30-406 limits assumed): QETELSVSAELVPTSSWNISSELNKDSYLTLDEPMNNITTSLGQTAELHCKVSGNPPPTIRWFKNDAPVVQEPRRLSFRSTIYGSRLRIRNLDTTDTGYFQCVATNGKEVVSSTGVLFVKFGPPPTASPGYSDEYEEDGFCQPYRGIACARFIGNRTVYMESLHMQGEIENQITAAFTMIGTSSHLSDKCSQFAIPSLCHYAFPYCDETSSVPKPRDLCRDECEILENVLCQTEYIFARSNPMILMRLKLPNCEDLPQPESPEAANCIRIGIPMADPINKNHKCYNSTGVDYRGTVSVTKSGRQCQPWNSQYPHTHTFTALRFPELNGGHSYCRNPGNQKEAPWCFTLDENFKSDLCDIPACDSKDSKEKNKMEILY
From the text: as §1
The VH and VL sequences above were formatted into a bivalent monospecific native human full-length IgG1 architecture.

[3] = molecular target: T2, extracellular domain of human ROR1; experiment: BLI, monovalent format
Description: (§3) More specifically, monovalent binding affinity analysis was performed using the Octet^QK 384 (ForteBio) using Fc biosensors. Unlabeled B-body™ is first bound to the Fc biosensor at a concentration to yield approximately 1 nm response (typically 10 to 50 nM protein). The biosensors are then equilibrated in 10× Kinetic Buffer (ForteBio) to establish a baseline. The untagged monomer of each antigen is contacted with the antibody-coated sensors at concentrations ranging from 50 nm to 0.75 nM. The association response and dissociation were monitored and recorded. The resulting Kₒₙ and Koff was fit using the Octet analysis software.
(§4) Next, the binding of the antibody to ROR1 and ROR2 was assessed using the monovalent and bivalent BLI binding assessments as described in Example 24.

[4] = molecular target: T1, extracellular domain of human ROR2; experiment: BLI, monovalent format
Description: as §3, §4

[5] = molecular target: T2, extracellular domain of human ROR1; experiment: BLI (Octet QK384), monovalent format: antibody captured on Fc biosensor, untagged antigen as analyte
Description: as §3, §4

[6] = molecular target: T1, extracellular domain of human ROR2; experiment: as above
Description: as §3, §4

ROR1 on tumor cell lines = ROR1 on tumor cell lines (human, UniProt Q01973 30-937); experiment: cell-based or functional assay
Chain of ROR1 on tumor cell lines (Q01973 30-937 limits assumed): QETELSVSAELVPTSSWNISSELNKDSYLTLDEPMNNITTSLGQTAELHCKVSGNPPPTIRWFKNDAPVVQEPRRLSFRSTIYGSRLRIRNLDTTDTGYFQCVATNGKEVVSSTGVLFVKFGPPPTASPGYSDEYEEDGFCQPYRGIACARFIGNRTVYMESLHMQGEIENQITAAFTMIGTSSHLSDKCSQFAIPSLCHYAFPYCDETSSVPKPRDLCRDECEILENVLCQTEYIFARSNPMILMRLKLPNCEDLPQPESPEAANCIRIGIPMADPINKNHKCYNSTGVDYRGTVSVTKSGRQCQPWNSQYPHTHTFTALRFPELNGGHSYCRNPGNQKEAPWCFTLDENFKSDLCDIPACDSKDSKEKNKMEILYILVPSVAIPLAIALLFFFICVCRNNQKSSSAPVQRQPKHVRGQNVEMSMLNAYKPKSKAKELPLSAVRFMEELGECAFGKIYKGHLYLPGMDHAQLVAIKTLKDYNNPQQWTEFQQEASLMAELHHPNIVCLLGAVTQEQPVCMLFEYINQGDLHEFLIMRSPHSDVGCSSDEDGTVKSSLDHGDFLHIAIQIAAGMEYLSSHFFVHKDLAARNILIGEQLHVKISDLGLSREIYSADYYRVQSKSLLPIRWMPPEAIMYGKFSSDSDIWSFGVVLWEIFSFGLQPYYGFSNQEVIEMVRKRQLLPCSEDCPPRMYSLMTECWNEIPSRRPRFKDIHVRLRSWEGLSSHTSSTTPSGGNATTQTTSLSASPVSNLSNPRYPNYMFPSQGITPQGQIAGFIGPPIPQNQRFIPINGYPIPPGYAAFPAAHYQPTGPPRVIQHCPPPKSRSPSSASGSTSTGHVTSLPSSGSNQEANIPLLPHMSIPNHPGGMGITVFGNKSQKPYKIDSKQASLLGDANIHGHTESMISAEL

ROR1 Frizzled domain = molecular target: T3, ROR1 Frizzled domain (human, UniProt Q01973 165-299); experiment: BLI, IgG1 on biosensor, soluble ROR1 domain
T3 construct: also called FZ domain; Acro Cat. No. RO1-H5222
T3 sequence (Q01973 165-299): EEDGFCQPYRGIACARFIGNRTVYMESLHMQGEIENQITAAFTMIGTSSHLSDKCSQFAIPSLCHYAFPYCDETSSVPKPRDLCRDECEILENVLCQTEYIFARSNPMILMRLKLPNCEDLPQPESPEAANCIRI
From the text: as §1, §2

[7] = molecular target: T2, extracellular domain of human ROR1; experiment: BLI, IgG1 on biosensor, soluble ROR ectodomain
From the text: as §1, §2

[8] = molecular target: human CD3 delta and epsilon heterodimer (human, UniProt P07766 23-126; P04234 22-105); experiment: BLI (Octet), two-fold serial dilution 200-12.5 nM of the construct
Chain of human CD3 delta and epsilon heterodimer (P07766 23-126, stated change not applied, chain 1 of 2): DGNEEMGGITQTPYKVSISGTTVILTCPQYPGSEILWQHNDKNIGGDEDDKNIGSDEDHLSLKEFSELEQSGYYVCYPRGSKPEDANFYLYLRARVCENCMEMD
Chain of human CD3 delta and epsilon heterodimer (P04234 22-105, stated change not applied, chain 2 of 2): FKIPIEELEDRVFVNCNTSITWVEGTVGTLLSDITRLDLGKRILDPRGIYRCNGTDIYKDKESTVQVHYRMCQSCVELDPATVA

T1 sequence (Q01974 34-403 limits assumed): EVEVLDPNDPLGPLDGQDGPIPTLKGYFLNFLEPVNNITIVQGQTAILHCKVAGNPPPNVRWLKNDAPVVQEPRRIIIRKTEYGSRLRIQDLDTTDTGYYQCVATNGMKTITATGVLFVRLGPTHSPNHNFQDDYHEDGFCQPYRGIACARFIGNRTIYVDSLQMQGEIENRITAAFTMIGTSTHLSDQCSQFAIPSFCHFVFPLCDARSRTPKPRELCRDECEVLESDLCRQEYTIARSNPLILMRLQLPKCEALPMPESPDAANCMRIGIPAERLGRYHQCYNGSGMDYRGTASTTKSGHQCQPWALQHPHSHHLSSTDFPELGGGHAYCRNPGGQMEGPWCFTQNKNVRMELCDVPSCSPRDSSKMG

B1: I2A-10 IgG1 (antibody, V domains shown)
VH: EVQLVESGGGLVQPGGSLRLSCAASGFTFSSYFIHWVRQAPGKGLEWVAGIYPSDGYTSYADSVKGRFTISADTSKNTAYLQMNSLRAEDTAVYYCARYYVSGMDYWGQGTLVTVSS
VL: DIQMTQSPSSLSASVGDRVTITCRASQSVSSAVAWYQQKPGKAPKLLIYSASSLYSGVPSRFSGSRSGTDFTLTISSLQPEDFATYYCQQYYYYPGTFGQGTKVEIKR
notes: bivalent monospecific native human full-length IgG1; the Domain F / Domain A entries end with AS / RT of the junction to the constant domain; also called clone I2-A10
binding result [1]: binds | Kd [2]: 0.82 nM | koff [2]: 0.00038 s⁻¹ | kon [2]: 538000 M⁻¹ s⁻¹

B2: I2A-10 D54E Y55Q IgG (antibody, V domains shown)
VH: EVQLVESGGGLVQPGGSLRLSCAASGFTFSSYFIHWVRQAPGKGLEWVAGIYPSEGYTSYADSVKGRFTISADTSKNTAYLQMNSLRAEDTAVYYCARYYVSGMDYWGQGTLVTVSS
VL: DIQMTQSPSSLSASVGDRVTITCRASQSVSSAVAWYQQKPGKAPKLLIYSASSLQSGVPSRFSGSRSGTDFTLTISSLQPEDFATYYCQQYYYYPGTFGQGTKVEIKR
notes: bivalent monospecific IgG; the Domain F / Domain A entries end with AS / RT of the junction to the constant domain; also called I2-A10 D54E Y55Q IgG antibody
Kd [3]: 0.7 nM | Kd [4]: < 0.001 nM | koff [5]: 0.00039 s⁻¹ | kon [5]: 550000 M⁻¹ s⁻¹ | koff [6]: < 1e-07 s⁻¹ | kon [6]: 140000 M⁻¹ s⁻¹

B3: I2A-10 BC1 1×2 B-body (I2A-10 x SP34-89) (bispecific antibody)
chain 1: not shown
chain 2: EVQLVESGGGLVQPGGSLRLSCAASGFTFSSYFIHWVRQAPGKGLEWVAGIYPSDGYTSYADSVKGRFTISADTSKNTAYLQMNSLRAEDTAVYYCARYYSGMDYWGQGTLVTVSSASPREPQVYTDPPSRDELTKNQVSLTCLVKGFYPSDIAVEWESNGQPENNYKTTPPVLDSDGSFFLYSKLTVDKSRWQQGNVFSCSVMHEALHNHYTQKSLSLSGEC
chain 3: DIQMTQSPSSLSASVGDRVTITCRASQSVSSAVAWYQQKPGKAPKLLIYSASSLYSGVPSRFSGSRSGTDFTLTISSLQPEDFATYYCQQYYYYPGTFGQGTKVEIKRTPREPQVYTLPPSRDELTKNQVSLKCLVKGFYPSDIAVEWESNGQPENNYKTTPPVLDSDGSFFLYSKLTVDKSRWQQGNVFSCSVMHEALHNHYTQKSLSLSKSCTASSGGSSSGQAVVTQEPSLTVSPGGTVTLTCRSSTGAVTTSNYANWVQQKPGQAPRGLIGGTNKRAPWTPARFSGSLLGGKAALTITGAQAEDEADYYCALWYSNLWVFGGGTKLTVLGRTVAAPSVFIFPPSDEQLKSGTASVVCLLNNFYPREAKVQWKVDNALQSGNSQESVTEQDSKDSTYSLSSTLTLSKADYEKHKVYACEVTHQGLSSPVTKSFNRGECDKTHTCPPCPAPEAAGGPSVFLFPPKPKDTLMISRTPEVTCVVVDVSHEDPEVKFNWYVDGVEVHNAKTKPREEQYNSTYRVVSVLTVLHQDWLNGKEYKCKVSNKALKAPIEKTISKAKGQPREPQVCTLPPSREEMTKNQVSLSCAVKGFYPSDIAVEWESNGQPENNYKTTPPVLDSDGSFFLVSKLTVDKSRWQQGNVFSCSVMHEALHNHYTQKSLSLSPGK
chain 4: EVQLVESGGGLVQPGGSLRLSCAASGFTFNTYAMNWVRQAPGKGLEWVARIRSKYNNYATYYADSVKGRFSISRDDSKNTAYLQMNSLRAEDTAVYYCVRHGNFGNSYVSWFAYWGQGTLVTVSSASTKGPSVFPLAPSSKSTSGGTAALGCLVKDYFPEPVTVSWNSGALTSGVHTFPAVLQSSGLYSLSSVVTVPSSSLGTQTYICNVNHKPSNTKVDKKVEPPKSC
EC50, CD8+ T cell mediated killing of MDA-MB-231 (LDH) (ROR1 on tumor cell lines): 0.013 nM

B4: I2A-27 BC1 1×2 B-body (I2A-27 x SP34-89), Example 20 (bispecific antibody)
chain 1: not shown
chain 2: EVQLVESGGGLVQPGGSLRLSCAASGFTFKGYYIHWVRQAPGKGLEWVAAIYPYGGSTDYADSVKGRFTISADTSKNTAYLQMNSLRAEDTAVYYCARVYIYGVFDYWGQGTLVTVSSASPREPQVYTDPPSRDELTKNQVSLTCLVKGFYPSDIAVEWESNGQPENNYKTTPPVLDSDGSFFLYSKLTVDKSRWQQGNVFSCSVMHEALHNHYTQKSLSLSGEC
chain 3: DIQMTQSPSSLSASVGDRVTITCRASQSVSSAVAWYQQKPGKAPKLLIYSASSLYSGVPSRFSGSRSGTDFTLTISSLQPEDFATYYCQQYYSSPRTFGQGTKVEIKRTPREPQVYTLPPSRDELTKNQVSLKCLVKGFYPSDIAVEWESNGQPENNYKTTPPVLDSDGSFFLYSKLTVDKSRWQQGNVFSCSVMHEALHNHYTQKSLSLSKSCTASSGGSSSGQAVVTQEPSLTVSPGGTVTLTCRSSTGAVTTSNYANWVQQKPGQAPRGLIGGTNKRAPWTPARFSGSLLGGKAALTITGAQAEDEADYYCALWYSNLWVFGGGTKLTVLGRTVAAPSVFIFPPSDEQLKSGTASVVCLLNNFYPREAKVQWKVDNALQSGNSQESVTEQDSKDSTYSLSSTLTLSKADYEKHKVYACEVTHQGLSSPVTKSFNRGECDKTHTCPPCPAPEAAGGPSVFLFPPKPKDTLMISRTPEVTCVVVDVSHEDPEVKFNWYVDGVEVHNAKTKPREEQYNSTYRVVSVLTVLHQDWLNGKEYKCKVSNKALKAPIEKTISKAKGQPREPQVCTLPPSREEMTKNQVSLSCAVKGFYPSDIAVEWESNGQPENNYKTTPPVLDSDGSFFLVSKLTVDKSRWQQGNVFSCSVMHEALHNHYTQKSLSLSPGK
chain 4: EVQLVESGGGLVQPGGSLRLSCAASGFTFNTYAMNWVRQAPGKGLEWVARIRSKYNNYATYYADSVKGRFSISRDDSKNTAYLQMNSLRAEDTAVYYCVRHGNFGNSYVSWFAYWGQGTLVTVSSASTKGPSVFPLAPSSKSTSGGTAALGCLVKDYFPEPVTVSWNSGALTSGVHTFPAVLQSSGLYSLSSVVTVPSSSLGTQTYICNVNHKPSNTKVDKKVEPPKSC
EC50, CD8+ T cell mediated killing of MDA-MB-231 (LDH) (ROR1 on tumor cell lines): 0.0082 nM

B5: I2C-6 IgG1 (antibody, V domains shown)
VH: EVQLVESGGGLVQPGGSLRLSCAASGFTFSWYFIHWVRQAPGKGLEWVARIYSTGGYTEYADSVKGRFTISADTSKNTAYLQMNSLRAEDTAVYYCARSAFFGALDYWGQGTLVTVSS
VL: DIQMTQSPSSLSASVGDRVTITCRASQSVSSAVAWYQQKPGKAPKLLIYSASSLYSGVPSRFSGSRSGTDFTLTISSLQPEDFATYYCQQYPSGPETFGQGTKVEIK
notes: human IgG1
binding result (ROR1 Frizzled domain): binds | binding result [7]: binds | binding result [1]: binds

B6: I2A-25 IgG1 (antibody, V domains shown)
VH: EVQLVESGGGLVQPGGSLRLSCAASGFTFYGYTIHWVRQAPGKGLEWVAAIYPYTDSTRYADSVKGRFTISADTSKNTAYLQMNSLRAEDTAVYYCARDYRRALDYWGQGTLVTVSS
VL: DIQMTQSPSSLSASVGDRVTITCRASQSVSSAVAWYQQKPGKAPKLLIYSASSLYSGVPSRFSGSRSGTDFTLTISSLQPEDFATYYCQQYTDFPWTFGQGTKVEIK
notes: human IgG1
binding result (ROR1 Frizzled domain): binds | binding result [7]: binds | binding result [1]: no binding

B7: I2A-34 IgG1 (antibody, V domains shown)
VH: EVQLVESGGGLVQPGGSLRLSCAASGFTFSWYVIHWVRQAPGKGLEWVAYIAPYTGSTYYADSVKGRFTISADTSKNTAYLQMNSLRAEDTAVYYCARAFFGIRLGLDYWGQGTLVTVSS
VL: DIQMTQSPSSLSASVGDRVTITCRASQSVSSAVAWYQQKPGKAPKLLIYSASSLYSGVPSRFSGSRSGTDFTLTISSLQPEDFATYYCQQAISSPYTFGQGTKVEIK
notes: human IgG1
binding result (ROR1 Frizzled domain): binds | binding result [7]: binds | binding result [1]: binds

B8: I2A-32 IgG1 (antibody, V domains shown)
VH: EVQLVESGGGLVQPGGSLRLSCAASGFTFQSYVIHWVRQAPGKGLEWVAAIYPYSSSTIYADSVKGRFTISADTSKNTAYLQMNSLRAEDTAVYYCARSWSVYLGMDYWGQGTLVTVSS
VL: DIQMTQSPSSLSASVGDRVTITCRASQSVSSAVAWYQQKPGKAPKLLIYSASSLYSGVPSRFSGSRSGTDFTLTISSLQPEDFATYYCQQSYDSPRTFGQGTKVEIK
notes: human IgG1
binding result (ROR1 Frizzled domain): binds | binding result [7]: binds | binding result [1]: no binding

B9: non-mutagenized SP34-89 monovalent B-Body (bispecific antibody, V domains shown)
VH: EVQLVESGGGLVQPGGSLRLSCAASGFTFNTYAMNWVRQAPGKGLEWVARIRSKYNNYATYYADSVKGRFSISRDDSKNTAYLQMNSLRAEDTAVYYCVRHGNFGNSYVSWFAYWGQGTLVTV
VL: QAVVTQEPSLTVSPGGTVTLTCRSSTGAVTTSNYANWVQQKPGQAPRGLIGGTNKRAPWTPARFSGSLLGGKAALTITGAQAEDEADYYCALWYSNLWVFGGGTKLTVL
notes: cloned into one arm of a 1×1 BC1 B-Body
Kd [8]: 23 nM | koff [8]: 0.0071 s⁻¹ | kon [8]: 300000 M⁻¹ s⁻¹
